This passage reports protein production results from a protein production outcome set (Wang et al. 2014).
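Further: failed if final PepcDB status was selected cloned or expressed and not failed if soluble or beyond.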

This data set in a line: label from the status in PepcDB records.
Turning to “MKMKHAFGPIILACVLFFIIILIPSKSLVSLISDKKVEDAATSLQKEKLQSVFLQQKMLENSQYLPMYGSSEFLRMDAYHPSNYFKVNPAGFTPYLIGIGGTQSLAHILNMTSTIDELEGKKVVFVLSPQWFTKTGVSQGDFTNNFSKQQAYHFIFNDKMNVEMKKQIAKRLLDYKVVQEDDILKNSLEGIVYNDTKHNIKAGLVKPLAYMHRNILDHRDLFNSIFKIEPMKEKTNVGLRSISWVDARKHAEEEGKAESTTNTFGIENPYYYKHNLKKKLKGLKNFRVNESYEESPEYDDLQIVLNIFKEKNVKPLFISVPVNGPWYDYAGFPKERREVYYKKVREQVEKAGYPVVDFSGHEYDKYFLKDTIHLGWKGWIYFDEAVQNFYNEKLEHHHHHH”, the protein production entry is listed as “failed”. For “MKMMDANEIISFIQKSEKKTPVKVYIKGDLKEVTFPETVQAFVNKKSGVLFGEWSEIKTILDENSKYIVDYVVENDRRNSAIPMLDLKGIKARIEPGAIIRDHVEIGDNAVIMMNATINIGAVIGEGSMIDMNAVLGGRATVGKNCHVGAGAVLAGVIEPPSAKPVIVEDDVVIGANVVVLEGVTVGKGAVVAAGAVVTEDVPPYTVVAGTPARVIKEIDEKTKAKTEIKQELRQLNPEK” the value was “failed”. For “MKMMDANEIISFIQNSTKSTPVKVYVKGELEGINFGESAKAFINGNTGVVFGEWSEIQTAIEENQSKIEDYVVENDRRNSAIPMLDLKNIKARIEPGAIIRDQVEIGDNAVIMMGASINIGSVIGEGTMIDMNVVLGGRATVGKNCHIGAGSVLAGVIEPPSAKPVVIEDDVVIGANAVVLEGVTVGKGPVVAAGAIVVNDVEPYTVVAGTPAKKIKDIDEKTKGKTEIKQELRQL” the value was “not failed”; for “MKMVDELKGNLNSFLILLGIFSFLQFSFKQSFMFPSILPLNIPDSNLLLVIGNISFYFFFVFLLIVSMILSLTYKSLIPLTIILTISPFITLIPNYENSFLLYSLEIAILILGLASTIEGLIKSSLLSILLIPTLVLVNLGIYASILLNIFHNALFISYLTIYLISIAGYLAYVISWGKIKSLRNYIAISVGLLSMIPFIFFENIISHNRYLEILMNMILPSTLGITLYNPYHITLLVMALGLSTMGIVTSLIKGNVSSGVGYFLIITTVFLGIDGFSLLIYMLTPIIGFLVITSSEIESKRRLIDIISPTRNG”, “failed”; for “MKNAFLYFLLYYRMLTTYYEWFVIVCFPQIRKICCYNEDTKTNAMEAIMKKLIGIATAAVFGLGIFTSSANAETVVTTDVLNVRENPTTESKVVGKLLNGNKIDVQNTENGWSKITLDGKDAFVSAEFTKSIYYVTANVLNVRAEANTNSEILGTLKKDDMIETTNQVQNEWLQFEYNGKTAYVHVPFLTGTAPVIEKQEQPAPAKAQAPAQAPAAQAKQAAKPAVKAAETNTPSGGRELTVVATAYTAHPSENGGTYGGRVLTAMGHDLTANPNMKMIAVDPKVIPLGSKVWVEGYGEAIAGDTGGAIKGNRIDILLGSDSAAQKWGRKTVKVKILK”, “failed”.

In the case of “MKNEGKKGTEQAKKPEKTKITENEINGNESGKQSFEVDRRSVYRCVQCGTCRSVCPVFDVVGWESANTRGRMLIIKSLLEGRPPSEDMLPSLASCTTCGICAVKCPAGVKPPKVVEAARAQLVKCGITTEAQKNLKSTIMTYGNSFGETRDRKHWLSEVERSQLPEKSDYVYFVGCFDSYRYPEFAKKTFGILQQFGVTLLPDEQCCASPLLRTGFKEDAEKVMKHNLEQIRKVGAHTIITSCAGCYTTLKNNYPEELKVISLPEFLVEHLEELNLKKLDLTVTYHDPCHLGRHNKVYDAPRKVIQAICTLKEMKYIKENARCCGGGGGVRTGYPDISLELARNRLKDVPEGVDYIVTSCPLCVRNLRDAGGDIEVIDIVELVAMAME”, the protein production result was “failed”.

As for “MKNEVFFGEGMKVVAAAYPDLYDIIVKLNDTVFTGKTLDYKTQKLIAIGIVASRCDEVAIEKQMKSAMKELGITKEEIADVLRVVLLTSGMPAFTKAMKILEKL”, the protein production entry was “not failed”. The value for “MKNFLMKKIIYSGVLSIHFILAFVVNSVGAAQLKKSSTLSMNVLFITIDDLNNDLGAYGHHLVKSPNIDALAKKGIRFDKAYSQSPMCTPSRSSFMTGLYPDQTGIIAHGSHTQMTAHFREHIPKVTTLPQLFKNNGYFSGRVGKIYHQGVPNQIGTSGADDAASWHETVNPIGLDKDVEDKIIAFNEKALVRQSFGGVLSFLAIGDDDKAHTDGKVATETINMIKDHHPDKTGKPFFIGAGFYRPHTPFVAPKKYFDLYPLEKIKPYIAPKNDRKDIPDIALQDREGQVGLTLNQRKQIIQGYYAAVSYVDAQVGRVLDALKQQDLSDNTIVVFLSDHGYELGQHGLWQKGSLFEGSARAPLIIYAPNVKDNGRVVTSPVELVDIYPTLAKLTGLVAPEYLAGKDLTPALNDVDFQVRKGAYSAILNRNKGDNNQFAFTKIRGHSIRTNRYRYTEWGEGYFGAELYDHKNDPQELKNLADKVSLESVRIKMKWLLNDAMDDAQKRIKSIE” was “failed”; that for “MKNIEKLEQSLTYEFKDKNLLIHALTHKSFKKSYNNERLEFLGDAVLDLVVGEYLFHKFAKDAEGDLSKLRAALVNEKSFAKIANSLNLGDFILMSVAEENNGGKEKPSILSDALEAIIGAIHLEAGFEFAKTIALRLIEKNFPQIDAKILIKDYKTKLQEITQGKIGQTPQYETVRAFGPDHLKQFEIALMLDGKELARAIAGSKKEAQQMAAKIALEKLGAL” was “not failed”. The value for “MKNILKVFNTTILALIIIIATFSNSANAADSGTLNYEVYKYNTNDTSIANDYFNKPAKYIKKNGKLYVQITVNHSHWITGMSIEGHKENIISKNTAKDERTSEFEVSKLNGKIDGKIDVYIDEKVNGKPFKYDHHYNITYKFNGPTDVAGANAP” was “not failed”; that for “MKNKKYLQFGGIAAVILIVLFLVSLFSSDTRNFQEVDTSVAMAQLDAGNVAEAQIDDREQRVRLTLREPITVDEREGVEEILAQYPARTAPAIFEKVEASNTDSYTTNVTQESFLMSMLSFILPMVIIFGLLMFFLTRMQGGGMFGIGGSKAKQLTKDMPTNTFADVAGAEEAVDELHEIKDFLEDPTRYEALGAKIPRGVLLYGPPGTGKTLLARAVAGEAGVPFYSISGSDFVEMFVGVGASRVRDLFKQAKENSPCIIFVDEIDAVGRARGSGMGGGHDEREQTLNQLLVEMDGFGDRQGVILMAATNRPDVLDPALLRPGRFDRQIPVTNPDLRGREQILEVHAKGKPFAPDADIKALAKRTAGMSGADLANVLNEAALLTARVGGNVITADALEEATDRVVGGPRRSGKVISEKEKKVTAYHEGGHTLSAWALEDIERVYKVTILARGRTGGHAMTAQEDDKGMYNRNELFARLVFAMGGRSAEELVFGEPTTGASADIEMATKIARSMVTEYGMSPAVGMVKYGQEQGDPFSGRGGGGNLDHSQEVAATIDTEVQFLLDKAHEVSYSILAEYRDHLDRLAEKLLEKETLRRPDLEALFDDIVPRKVAEVFPDESTRFPRQENREPVKTPVELALERGEEPPKKFSILEASRATRERRRKELEAQGKLPVQPASSAGVAPAAGAAAGSYGTPPPADWSVPGSAGKHRSRAEEQPAEQGFPAQTPAQAPEQSPDSSGGRPNPYATPTASGEHPGMKAYGFGDSELMDQSTGAEHTPGNVSQESPTEMIGFRLPDHERSDYPEKAQKESVLDASETTEMPVVPDQPIDGDSGKSAEGTQENPENEGDNRG” was “failed”; that for “MKNLVVVDHPLIKHKLTIMRDKNTGPKEFRELLREITLLLAYEATRHLKCEEVEVETPITKTIGYRINDKDIVVVPILRAGLVMADGILELLPNASVGHIGIYRDPETLQAVEYYAKLPPLNDDKEVFLLDPMLATGVSSIKAIEILKENGAKKITLVALIAAPEGVEAVEKKYEDVKIYVAALDERLNDHGYIIPGLGDAGDRLFRTK” was “not failed”.

For “MKNPQSKADDILQCARTLIIRGGYNSFSYADISQVVGIRNASIHHHFPSKSDLVCKLVSQYRQEAEAGIAELEKNISDPLEQLRAYIGYWEGCIADATHPFCVCALLASEIPVLPETVVLEVRAHFRSLSDWLTAVLERGIAQGRLVLTGTARANAEIFMATVHGAMLSARAHGDAATFGAITRPMLERITA”, the protein production entry was “not failed”. For “MKNRIWSAAMAAGLLVAAATSAQAEPVMQGRDAYGDWQSDRPGTVRLIRPQDLVKPGATRSVASFARVVPRPSDASPQVPPGFKIELFAEGLRAPRIVRVAPNGDVFVAETRAGTIRVLRAGEGGKVAANEVFASGLRQPFGVAFFPNGDNPQWVYVANTDSVVRFPYQAGDLKARSKAEKIVASLPHDGGHSTRDIVFTPDNKRMLVSVGSLSNVAEGMGTPPGGMDAWSKTQPLGAAWASETERATVLAFTPDGKERKIYATGIRNCVGLAIQSQTGLPWCSTNERDGLGDDLVPDYVTSVKEGAFYGWPWFYIGGNEDPRHAGARPDLKDRVTIPDVLIQPHSASLGMTFYEGTQFPSDYQGDAFAAEHGSWNRSKRTGYKVIRIRMKDGKPTGEYEDFVTGFVLSDTEVWGRPVGVAVAKDGALLISEDGNGTIWRVSHP” the value was “failed”; for “MKPILALLSLLALPVMAAEPTLYGRYENIKVLEIGQTFKAKMDTGALTASLSAKDIELFQRDGDDWVRFRLATKGADDKVYEHKVSRISKIKGRAEGDDEDDEGINPAKRPVVDLELCLGNKKRTVEVNLVDRSHFNFPLLIGAKALREFGAAINPARRYTADEPDC”, “not failed”. “MKPLEQAINDNKKKKRFNFRMPGAFMILFILTVVAVIATWIIPAGAYSKLSYEPSSQELKIVNPHHQVKKVPGTQKELDRLGVKIKIEQFKSGAINKPVSIPNTYERLKQHPAGLDQITSSMVKGTIEAVDIMVFILVLGGLIGVVQASGSFESGLLALTQKTKGHEFMLIAFVSILMIIGGTLCGIEEEAVAFYPVLVPIFIALGYDSIVSVGAIFLASSVGSTFSTINPFSVVIASNAAGTTFTDGLYWRIGACIIGAIFVISYLFWYCKKIKKDPKSSYSYEDKAAFEKQWSVLHDDGSSEFTLRKKIILTLFVLPFPIMVWGVMTQGWWFPVMASVFLIFTIIIMFIAGTGQYGLGEKGTVDAFVNGASSLVGVSLIIGLARGINLVLNKGMISDTILHFSSSIVQHMSGPLFIIVLLFIFFCLGFIVPSSSGLAVLSMPIFAPLADTVGIPRFVIVTTYQFGQYAMLFLAPTGLVMATLQMLNMRYSHWLRFVWPVVAFVLIFGGGLLITQVLIYS”: the protein production result was “failed”. Take “MKPPSAIMETALYADDLDAAEAFYRDVFGLEMVLKLPGQLVFFKCGRQMLLLFDPQESSRADANNPIPRHGAVGQGHFCFYADDKAEVDEWKTRFEALEIPVEHYHRWPNGSYSVYIRDPAGNSVEVGEGKLWGFE”: the protein production result is “not failed”. On to “MKPRDINKLIASKIFGYEIKDDNIIKDGRYRLGIPLYSQNIESAWQVVEKLEYDVKVTKTDLKPKYQVHVFVPGGVKMVFAETAPMAICKGALASVDIELQD”, for which the protein production result is “not failed”. For “MKPRIYVKVKPERLGAVIGPRGEVKAEIMRRTGTVITVDTENSMVIVEPEAEGIPPVNLMKAAEVVKAISLGFPPEKAFRLLEEDQILVVVDLKQVVGDSQNHLKRIKGRIIGEGGRARRTIEEMTDTYINVGEYEVAIIGDYERAMAAKQAIEMLAEGRMHSTVYRHLERIMREIKRRERLKMWAREEL” the value was “not failed”; for “MKPRVEILMSTYNGEKFLAEQLDSILAQTHQYFVLTVRDDGSKDGTPDILSRYAATDERITYCVQENRGVVGSFYWLLKNSSPLSNYVAFSDQDDVWLPNKLERALDVLSRYDETLPLLYCSRVEYVSAGLGHLDDSPMMVRPVCLNNALIQNVATGCTVVMNKAARDLLLEREWPPQVLMHDWWSYIVVSAFGKVVYDDFVSIKYRQHGGNVIGGTVSFVSDYRSRIINFLSRRRKGVFGCYDQAYSFWLGYKDELKGESRGIVSQFIESKRSFLSRLNYLTSSQRVYRHRFIDDVLVRLLILSNKYLEHHHHHH”, “failed”.
